Positions count from the first letter of the chain named.
B1: CD40L-23 (VHH)
VHH: EVQLVESGGGLVQPGGSLRLSCAASGSIDRINAMGWFRQAPGKEREFVAVIYSSDGSTLYADSVKGRFTISADNSKNTAYLQMNSLKPEDTAVYYCAAEPYGSGSSLISEYDWGQGTLVTVSS
B2: CD40L-1 (VHH)
VHH: EVQLVESGGGLVQPGGSLRLSCAASGRTFSSIYAMGWFRQAPGKEREFIAVIYWRDGSTLYADSVKGRFTISADNSKNTAYLQMNSLKPEDTAVYYCAAEPYGSGSSLISEYDWGQGTLVTVSS
B3: CD40L-45 (VHH)
VHH: EVQLVESGGGLVQPGGSLRLSCAASGLNLSRLDMGWFRQAPGKEREFVAASSWTGANTYYADSVKGRFTISADNSKNTAYLQMNSLKPEDTAVYYCASDHYDTDIKSDVYNWGQGTLVTVSS
B4: CD40L-10 (VHH)
VHH: EVQLVESGGGLVQPGGSLRLSCAASGRIFSTYFMGWFRQAPGKEREFVAAIYWSNGKTQYADSVKGRFTISADNSKNTAYLQMNSLKPEDTAVYYCAAWLNGGNRWGQGTLVTVSS
B5: CD40L-49 (VHH)
VHH: B4 VHH with I28T, T31R, F33Y
B6: CD40L-7 (VHH)
VHH: B4 VHH with R27H, I28T, T31S, F33Y, W53S, S54G, N55G, G56I, K57T, Q59H
B7: CD40L-3 (VHH)
VHH: B4 VHH with F47W, A49S, A50S, W53S, S54D, N55G, G56S, K57T, Q59D
B8: CD40L-37 (VHH)
VHH: EVQLVESGGGLVQPGGSLRLSCAASGRTFSSYYMGWFRQAPGKEREEVATFYTGDGRTYYADSVKGRFTISADNSKNTAYLQMNSLKPEDTAVYYCAAWLNGGNRWGQGTLVTVSS
B9: CD40L-2 (VHH)
VHH: EVQLVESGGGLVQPGGSLRLSCAASGGRTFSRYDMGWFRQAPGKEREFVAAISMSGDDAAYADSVKGRFTISADNSKNTAYLQMNSLKPEDTAVYYCASDHYDTDTKSDVYNWGQGTLVTVSS
B10: CD40L-53 (VHH)
VHH: B9 VHH with R32D, S53D, M54A, D57G, D58F, A59T, A60E
B11: CD40L-4 (VHH)
VHH: EVQLVESGGGLVQPGGSLRLSCAASGFTLDYYAMGWFRQAPGKEREFVAYVFGGGEITDYADSVKGRFTISADNSKNTAYLQMNSLKPEDTAVYYCANGNGVAETWGQGTLVTVSS
B12: CD40L-60 (VHH)
VHH: EVQLVESGGGLVQPGGSLRLSCAASGLNLSRLDMGWFRQAPGKEREFVAAVDNDDNTEYADSVKGRFTISADNSKNTAYLQMNSLKPEDTAVYYCASDHYDTDTKSDVYNWGQGTLVTVSS
B13: CD40L-13 (VHH)
VHH: EVQLVESGGGLVQPGGSLRLSCAASGFTFGNYDMGWFRQAPGKEREFVAAIDASGGFTEYADSVKGRFTISADNSKNTAYLQMNSLKPEDTAVYYCASDHYDTDTKSDVYNWGQGTLVTVSS
B14: CD40L-8 (VHH)
VHH: B13 VHH with F27R, G30S, N31R, Y32S, A50V, D52S, A53W, G56A, F57Y
B15: CD40L-31 (VHH)
VHH: EVQLVESGGGLVQPGGSLRLSCAASGFTFDDSDMGWFRQAPGKEREFVAVVNWSGSSESYADSVKGRFTISADNSKNTAYLQMNSLKPEDTAVYYCASDHYDTDTKSDVYNWGQGTLVTVSS
B16: CD40L-11 (VHH)
VHH: EVQLVESGGGLVQPGGSLRLSCAASGRTWNDLDMGWFRQAPGKEREFVAAISMSGEDAAYADSVKGRFTISADNSKNTAYLQMNSLKPEDTAVYYCASDHYDTDTKSDVYNWGQGTLVTVSS
B17: CD40L-43 (VHH)
VHH: B15 VHH with T28S, F29L, S32Y, V51I, N52S, S56A, S57Y, E58T, S59E
B18: CD40L-54 (VHH)
VHH: B15 VHH with S32Y, V50A, V51I, N52A, S54T, S56T, S57N, E58S, S59Y
B19: CD40L-32 (VHH)
VHH: B13 VHH with T28G, N31S, D52Y, A53S, S54D, F57S, T58A, E59Y
B20: CD40L-40 (VHH)
VHH: B13 VHH with G30D, N31D, F47L, D52S, S54T, G56D, F57D, E59Y
B21: CD40L-14 (VHH)
VHH: B13 VHH with G30S, N31T, I51V, D52S, A53Q, G56L, F57L, E59F
B22: CD40L-5 (VHH)
VHH: B13 VHH with F27L, T28L, G30S, N31S
B23: CD40L-50 (VHH)
VHH: B16 VHH with R27F, W29F, N30D, L32S
B24: CD40L-26 (VHH)
VHH: EVQLVESGGGLVQPGGSLRLSCAASGLTFSRYEMGWFRQAPGKEREFVAAVTEDGSINYADSVKGRFTISADNSKNTAYLQMNSLKPEDTAVYYCAAEIGYYSGGTYFSSEAWGQGTLVTVSS
B25: CD40L-114 (VHH)
VHH: EVQLVESGGGLVQPGGSLRLSCAASGRTFSPYIMGWFRQAPGKEREFVAEIGWRDTTLYADSVKGRFTISADNSKNTAYLQMNSLKPEDTAVYYCAARRGGDYLPTDWGQGTLVTVSS
B26: CD40L-125 (VHH)
VHH: EVQLVESGGGLVQPGGSLRLSCAASGFTFDYYTMGWFRQAPGKEREFVAVIYSSDGSTLYADSVKGRFTISADNSKNTAYLQMNSLKPEDTAVYYCAIDEGMDYDGNFYDWGQGTLVTVSS
B27: CD40L-115 (VHH)
VHH: EVQLVESGGGLVQPGGSLRLSCAASGRTFSRYEMGWFRQAPGKEREFVAAVTEDGSTYYADSVKGRFTISADNSKNTAYLQMNSLKPEDTAVYYCAIAHGSSTYNWGQGTLVTVSS
B28: CD40L-122 (VHH)
VHH: EVQLVESGGGLVQPGGSLRLSCAASGLLFSSYDMGWFRQAPGKEREFVAAISWSTGSGDDTYYADSVKGRFTISADNSKNTAYLQMNSLKPEDTAVYYCASDHYDTDTKSDVYNWGQGTLVTVSS
B29: CD40L-102 (VHH)
VHH: EVQLVESGGGLVQPGGSLRLSCAASGLTFSRYEMGWFRQAPGKEREFVAAVTEDGSIYADSVKGRFTISADNSKNTAYLQMNSLKPEDTAVYYCAAEIGYYSGGTYFSSEAWGQGTLVTVSS
B30: CD40L-111 (VHH)
VHH: EVQLVESGGGLVQPGGSLRLSCAASGDTSEINDMGWFRQAPGKEREFVAAIYPSGRNAYYADSVKGRFTISADNSKNTAYLQMNSLKPEDTAVYYCAIPHGIAGRITWGQGTLVTVSS
B31: CD40L-105 (VHH)
VHH: EVQLVESGGGLVQPGGSLRLSCAASGITFSSRTMGWFRQAPGKEREFVAAIRSSGGLFYADSVKGRFTISADNSKNTAYLQMNSLKPEDTAVYYCAAQDRRHGDYYTFDYHWGQGTLVTVSS

target: T1, CD40L (UniProt P29965 113-261, limits assumed); assay: SPR (Carterra LSA), antibody amine-coupled, 1:1 model
T1 construct: SPR analyte
T1 sequence (looked up): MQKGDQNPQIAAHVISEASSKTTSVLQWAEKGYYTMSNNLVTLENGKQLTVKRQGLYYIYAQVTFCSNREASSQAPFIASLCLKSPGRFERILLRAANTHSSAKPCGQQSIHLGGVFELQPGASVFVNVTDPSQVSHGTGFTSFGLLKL
Procedure: SPR experiments were performed on a Carterra LSA SPR biosensor equipped with a HC30M chip at 25° C. in HBS-TE. Antibodies were diluted to 10 μg/mL and amine-coupled to the sensor chip by EDC/NHS activation, followed by ethanolamine HCl quenching. Increasing concentrations of analyte were flowed over the sensor chip in HBS-TE with 0.5 mg/mL BSA with 5-minute association and 15-minute dissociation. Following each injection cycle the surface was regenerated with 2× 30-second injections of IgG elution buffer (Thermo). Data were analyzed in Carterra's Kinetics Tool software with 1:1 binding model.

Row | Binder | Kd | koff | kon
1 | B1 | 3 nM | 0.000555 s⁻¹ | 185000 M⁻¹ s⁻¹
2 | B2 | 0.986 nM | 9.43e-05 s⁻¹ | 95600 M⁻¹ s⁻¹
3 | B3 | 0.453 nM | 0.000106 s⁻¹ | 234000 M⁻¹ s⁻¹
4 | B4 | ≤ 0.326 nM | ≤ 1e-05 s⁻¹ | 30700 M⁻¹ s⁻¹
5 | B5 | 47.9 nM | 0.00121 s⁻¹ | 25300 M⁻¹ s⁻¹
6 | B6 | 6.93 nM | 0.000121 s⁻¹ | 17400 M⁻¹ s⁻¹
7 | B7 | 2.91 nM | 0.000159 s⁻¹ | 54700 M⁻¹ s⁻¹
8 | B8 | 2.39 nM | 0.000199 s⁻¹ | 83300 M⁻¹ s⁻¹
9 | B9 | 3.18 nM | 0.000725 s⁻¹ | 228000 M⁻¹ s⁻¹
10 | B10 | 0.0983 nM | 0.000167 s⁻¹ | 1.7e+06 M⁻¹ s⁻¹
11 | B11 | 5.82 nM | 0.00147 s⁻¹ | 252000 M⁻¹ s⁻¹
12 | B12 | 0.118 nM | 0.000108 s⁻¹ | 915000 M⁻¹ s⁻¹
13 | B13 | ≤ 0.0113 nM | ≤ 1e-05 s⁻¹ | 888000 M⁻¹ s⁻¹
14 | B14 | 1.37 nM | 0.0004 s⁻¹ | 291000 M⁻¹ s⁻¹
15 | B15 | 6.5 nM | 0.000581 s⁻¹ | 89300 M⁻¹ s⁻¹
16 | B16 | 0.882 nM | 0.000574 s⁻¹ | 651000 M⁻¹ s⁻¹
17 | B17 | 0.251 nM | 0.000173 s⁻¹ | 690000 M⁻¹ s⁻¹
18 | B18 | 0.758 nM | 0.000399 s⁻¹ | 526000 M⁻¹ s⁻¹
19 | B19 | 0.272 nM | 6.18e-05 s⁻¹ | 227000 M⁻¹ s⁻¹
20 | B20 | 0.806 nM | 0.000319 s⁻¹ | 396000 M⁻¹ s⁻¹
21 | B21 | 1.78 nM | 0.000538 s⁻¹ | 303000 M⁻¹ s⁻¹
22 | B22 | 0.295 nM | 0.000196 s⁻¹ | 662000 M⁻¹ s⁻¹
23 | B23 | 0.7 nM | 0.000577 s⁻¹ | 824000 M⁻¹ s⁻¹
24 | B24 | 0.491 nM | 0.000211 s⁻¹ | 429000 M⁻¹ s⁻¹

target: T2, CD40L over-expressed on Expi293 cells (UniProt P29965 1-261, limits assumed); assay: flow cytometry, 100 nM antibody, CD40L-Expi293 vs parent Expi293 cells;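 further: ratio is the mean fluorescence intensity on CD40L-overexpressing Expi293 cells divided by the mean fluorescence intensity on parental Expi293 cells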
T2 construct: whole, on cells; also called cytokine over-expressing Expi293 cells
T2 sequence (looked up): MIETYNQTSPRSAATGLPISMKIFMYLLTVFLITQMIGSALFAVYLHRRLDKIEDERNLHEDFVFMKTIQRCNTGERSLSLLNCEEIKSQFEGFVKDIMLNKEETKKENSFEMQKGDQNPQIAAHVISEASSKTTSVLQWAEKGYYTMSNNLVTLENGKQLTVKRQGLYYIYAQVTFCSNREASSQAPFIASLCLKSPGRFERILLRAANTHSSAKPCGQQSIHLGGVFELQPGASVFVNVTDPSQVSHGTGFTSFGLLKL
Procedure: All incubations and washes were in buffer containing PBS+1% BSA. MFI Ratio is defined by the mean fluorescence intensity (MFI) of the cytokine over-expressing Expi293 cell over the Expi293 parent cell. […] EC50 was calculated in GraphPad Prism.

Row | Binder | 100 nM FACS (MFI Ratio)
25 | B1 | 44.4 ratio
26 | B25 | 7.3 ratio
27 | B2 | 119 ratio
28 | B3 | 93.9 ratio
29 | B4 | 93.6 ratio
30 | B5 | 36.8 ratio
31 | B6 | 95.4 ratio
32 | B7 | 87.9 ratio
33 | B8 | 97.7 ratio
34 | B9 | 99.1 ratio
35 | B10 | 104 ratio
36 | B26 | 6.6 ratio
37 | B11 | 11.8 ratio
38 | B27 | 16.8 ratio
39 | B12 | 50.4 ratio
40 | B28 | 14.2 ratio

Row | Binder | 100 nM FACS (MFI Ratio)
41 | B13 | 37.3 ratio
42 | B14 | 80.9 ratio
43 | B15 | 18.5 ratio
44 | B16 | 84 ratio
45 | B17 | 83.8 ratio
46 | B18 | 100 ratio
47 | B19 | 152 ratio
48 | B20 | 74.2 ratio
49 | B21 | 22.5 ratio
50 | B22 | 72.9 ratio
51 | B23 | 131 ratio
52 | B24 | 123 ratio
53 | B29 | 1.8 ratio
54 | B30 | 9.7 ratio
55 | B31 | 4.5 ratio

From US20230265179A1 (TWIST BIOSCIENCE, published 2023)
